According to publication PMC9859758:
One block for each substance: values may come before it.

Experiments:
[1] = target: His-tagged NcKar9N-γ^− (Tyr363Ala/Arg364Ala) (Naumovozyma castellii); test: SEC-MALS; 20 mM Tris-HCl pH 7.5, 50 mM NaCl, 1 mM dithiothreitol; S-200 10/300 column; 30 μl of 200 μM protein injected
[2] = target: His-tagged NcKar9N-β^− (Arg233Ala/Ile237Ala) (Naumovozyma castellii); test: as above
[3] = target: His-tagged NcKar9N-β^− (Arg233Ala/Ile237Ala) (Naumovozyma castellii); test: SEC-MALS; 20 mM Tris-HCl pH 7.5, 150 mM NaCl, 1 mM dithiothreitol; S-200 10/300 column; 30 μl of 200 μM protein injected
[4] = target: His-tagged Naumovozyma castellii Kar9 N-terminal domain (NcKar9N, residues 1-410), wild type (Naumovozyma castellii); test: as above

- stoichiometry N [1]: < 4
Substance: His-tagged NcKar9N-γ^− (Tyr363Ala/Arg364Ala) (domain or fragment)

- stoichiometry N [2]: 2
- stoichiometry N [3]: 2
Substance: His-tagged NcKar9N-β^− (Arg233Ala/Ile237Ala) (domain or fragment)

- stoichiometry N [4]: 2
Substance: His-tagged Naumovozyma castellii Kar9 N-terminal domain (NcKar9N, residues 1-410), wild type (domain or fragment)
